{"source": "FireProtDB (doi:10.1021/bi00135a019)", "conditions": "Aspergillus oryzae (strain ATCC 42149 / RIB 40), Thermal, DSC, reversible: yes, whole UniProt chain shown", "key": {"[1]": {"conditions": "pH 7, PIPES 30 mM, MgCl2 0.40 M"}, "[2]": {"conditions": "pH 7, PIPES 30 mM, MgCl2 0.60 M"}, "[3]": {"conditions": "pH 7, PIPES 30 mM, MgCl2 0.80 M"}}, "data": [{"protein": "Guanyl-specific ribonuclease T1 wild type, P00651 (protein) MMYSKLLTLTTLLLPTALALPSLVERACDYTCGSNCYSSSDVSTAQAAGYQLHEDGETVGSNSYPHKYNNYEGFDFSVSSPYYEWPILSSGDVYSGGSPGADRVVFNENNQLAGVITHTGASGNNFVECT", "values": [{"measurement": "unfolding enthalpy (van 't Hoff)", "setting": "pH 7, PIPES 30 mM, MgCl2 0.20 M", "value": 122, "unit": "kcal/mol"}, {"measurement": "Tm", "setting": "[1]", "value": 60.1, "unit": "°C"}, {"measurement": "heat capacity change of unfolding", "setting": "[1]", "value": 1.22, "unit": "kcal/mol/K"}, {"measurement": "unfolding enthalpy (calorimetric)", "setting": "[1]", "value": 108, "unit": "kcal/mol"}, {"measurement": "unfolding enthalpy (van 't Hoff)", "setting": "[1]", "value": 122, "unit": "kcal/mol"}, {"measurement": "Tm", "setting": "[2]", "value": 61.9, "unit": "°C"}, {"measurement": "heat capacity change of unfolding", "setting": "[2]", "value": 1.07, "unit": "kcal/mol/K"}, {"measurement": "unfolding enthalpy (calorimetric)", "setting": "[2]", "value": 109, "unit": "kcal/mol"}, {"measurement": "unfolding enthalpy (van 't Hoff)", "setting": "[2]", "value": 125, "unit": "kcal/mol"}, {"measurement": "Tm", "setting": "[3]", "value": 63, "unit": "°C"}, {"measurement": "heat capacity change of unfolding", "setting": "[3]", "value": 1.14, "unit": "kcal/mol/K"}, {"measurement": "unfolding enthalpy (calorimetric)", "setting": "[3]", "value": 111, "unit": "kcal/mol"}, {"measurement": "unfolding enthalpy (van 't Hoff)", "setting": "[3]", "value": 121, "unit": "kcal/mol"}, {"measurement": "Tm", "setting": "pH 7, PIPES 30 mM, NaCl 0 M", "value": 48.9, "unit": "°C"}, {"measurement": "heat capacity change of unfolding", "setting": "pH 7, PIPES 30 mM, NaCl 0 M", "value": 1.35, "unit": "kcal/mol/K"}, {"measurement": "unfolding enthalpy (calorimetric)", "setting": "pH 7, PIPES 30 mM, NaCl 0 M", "value": 95.5, "unit": "kcal/mol"}, {"measurement": "unfolding enthalpy (van 't Hoff)", "setting": "pH 7, PIPES 30 mM, NaCl 0 M", "value": 118, "unit": "kcal/mol"}, {"measurement": "Tm", "setting": "pH 7, PIPES 30 mM, NaCl 0.05 M", "value": 51, "unit": "°C"}, {"measurement": "heat capacity change of unfolding", "setting": "pH 7, PIPES 30 mM, NaCl 0.05 M", "value": 0.93, "unit": "kcal/mol/K"}, {"measurement": "unfolding enthalpy (calorimetric)", "setting": "pH 7, PIPES 30 mM, NaCl 0.05 M", "value": 99.5, "unit": "kcal/mol"}, {"measurement": "unfolding enthalpy (van 't Hoff)", "setting": "pH 7, PIPES 30 mM, NaCl 0.05 M", "value": 120, "unit": "kcal/mol"}, {"measurement": "Tm", "setting": "pH 7, PIPES 30 mM, NaCl 0.10 M", "value": 52.1, "unit": "°C"}, {"measurement": "heat capacity change of unfolding", "setting": "pH 7, PIPES 30 mM, NaCl 0.10 M", "value": 1.6, "unit": "kcal/mol/K"}, {"measurement": "unfolding enthalpy (calorimetric)", "setting": "pH 7, PIPES 30 mM, NaCl 0.10 M", "value": 101, "unit": "kcal/mol"}, {"measurement": "unfolding enthalpy (van 't Hoff)", "setting": "pH 7, PIPES 30 mM, NaCl 0.10 M", "value": 119, "unit": "kcal/mol"}, {"measurement": "Tm", "setting": "pH 7, PIPES 30 mM, NaCl 0.20 M", "value": 53.9, "unit": "°C"}, {"measurement": "heat capacity change of unfolding", "setting": "pH 7, PIPES 30 mM, NaCl 0.20 M", "value": 1.31, "unit": "kcal/mol/K"}, {"measurement": "unfolding enthalpy (calorimetric)", "setting": "pH 7, PIPES 30 mM, NaCl 0.20 M", "value": 105, "unit": "kcal/mol"}, {"measurement": "unfolding enthalpy (van 't Hoff)", "setting": "pH 7, PIPES 30 mM, NaCl 0.20 M", "value": 121, "unit": "kcal/mol"}, {"measurement": "Tm", "setting": "pH 7, PIPES 30 mM, NaCl 0.40 M", "value": 56.5, "unit": "°C"}, {"measurement": "heat capacity change of unfolding", "setting": "pH 7, PIPES 30 mM, NaCl 0.40 M", "value": 1.4, "unit": "kcal/mol/K"}, {"measurement": "unfolding enthalpy (calorimetric)", "setting": "pH 7, PIPES 30 mM, NaCl 0.40 M", "value": 107, "unit": "kcal/mol"}, {"measurement": "unfolding enthalpy (van 't Hoff)", "setting": "pH 7, PIPES 30 mM, NaCl 0.40 M", "value": 121, "unit": "kcal/mol"}, {"measurement": "Tm", "setting": "pH 7, PIPES 30 mM, NaCl 0.60 M", "value": 58.5, "unit": "°C"}, {"measurement": "heat capacity change of unfolding", "setting": "pH 7, PIPES 30 mM, NaCl 0.60 M", "value": 1.31, "unit": "kcal/mol/K"}, {"measurement": "unfolding enthalpy (calorimetric)", "setting": "pH 7, PIPES 30 mM, NaCl 0.60 M", "value": 111, "unit": "kcal/mol"}, {"measurement": "unfolding enthalpy (van 't Hoff)", "setting": "pH 7, PIPES 30 mM, NaCl 0.60 M", "value": 122, "unit": "kcal/mol"}, {"measurement": "Tm", "setting": "pH 7, PIPES 30 mM, NaCl 0.80 M", "value": 60.2, "unit": "°C"}, {"measurement": "heat capacity change of unfolding", "setting": "pH 7, PIPES 30 mM, NaCl 0.80 M", "value": 2.11, "unit": "kcal/mol/K"}, {"measurement": "unfolding enthalpy (calorimetric)", "setting": "pH 7, PIPES 30 mM, NaCl 0.80 M", "value": 111, "unit": "kcal/mol"}, {"measurement": "unfolding enthalpy (van 't Hoff)", "setting": "pH 7, PIPES 30 mM, NaCl 0.80 M", "value": 124, "unit": "kcal/mol"}, {"measurement": "Tm", "setting": "pH 7, PIPES 30 mM, NaCl 1.20 M", "value": 63.2, "unit": "°C"}, {"measurement": "heat capacity change of unfolding", "setting": "pH 7, PIPES 30 mM, NaCl 1.20 M", "value": 1.42, "unit": "kcal/mol/K"}, {"measurement": "unfolding enthalpy (calorimetric)", "setting": "pH 7, PIPES 30 mM, NaCl 1.20 M", "value": 112, "unit": "kcal/mol"}, {"measurement": "unfolding enthalpy (van 't Hoff)", "setting": "pH 7, PIPES 30 mM, NaCl 1.20 M", "value": 126, "unit": "kcal/mol"}, {"measurement": "Tm", "setting": "pH 7, PIPES 30 mM, NaCl 1.60 M", "value": 65.6, "unit": "°C"}, {"measurement": "heat capacity change of unfolding", "setting": "pH 7, PIPES 30 mM, NaCl 1.60 M", "value": 1.37, "unit": "kcal/mol/K"}, {"measurement": "unfolding enthalpy (calorimetric)", "setting": "pH 7, PIPES 30 mM, NaCl 1.60 M", "value": 115, "unit": "kcal/mol"}, {"measurement": "unfolding enthalpy (van 't Hoff)", "setting": "pH 7, PIPES 30 mM, NaCl 1.60 M", "value": 125, "unit": "kcal/mol"}, {"measurement": "Tm", "setting": "pH 7, PIPES 30 mM", "value": 48.9, "unit": "°C"}, {"measurement": "heat capacity change of unfolding", "setting": "pH 7, PIPES 30 mM", "value": 1.35, "unit": "kcal/mol/K"}, {"measurement": "unfolding enthalpy (calorimetric)", "setting": "pH 7, PIPES 30 mM", "value": 95.5, "unit": "kcal/mol"}, {"measurement": "unfolding enthalpy (van 't Hoff)", "setting": "pH 7, PIPES 30 mM", "value": 119, "unit": "kcal/mol"}, {"measurement": "Tm", "setting": "pH 7.5, PIPES 30 mM", "value": 46.7, "unit": "°C"}, {"measurement": "heat capacity change of unfolding", "setting": "pH 7.5, PIPES 30 mM", "value": 1.71, "unit": "kcal/mol/K"}, {"measurement": "unfolding enthalpy (calorimetric)", "setting": "pH 7.5, PIPES 30 mM", "value": 93.2, "unit": "kcal/mol"}, {"measurement": "unfolding enthalpy (van 't Hoff)", "setting": "pH 7.5, PIPES 30 mM", "value": 121, "unit": "kcal/mol"}, {"measurement": "Tm", "setting": "pH 8, PIPES 30 mM", "value": 45.8, "unit": "°C"}, {"measurement": "heat capacity change of unfolding", "setting": "pH 8, PIPES 30 mM", "value": 0.88, "unit": "kcal/mol/K"}, {"measurement": "unfolding enthalpy (calorimetric)", "setting": "pH 8, PIPES 30 mM", "value": 91.6, "unit": "kcal/mol"}, {"measurement": "unfolding enthalpy (van 't Hoff)", "setting": "pH 8, PIPES 30 mM", "value": 116, "unit": "kcal/mol"}, {"measurement": "Tm", "setting": "pH 9, glycine 30 mM", "value": 40.7, "unit": "°C"}, {"measurement": "heat capacity change of unfolding", "setting": "pH 9, glycine 30 mM", "value": 0.42, "unit": "kcal/mol/K"}, {"measurement": "unfolding enthalpy (calorimetric)", "setting": "pH 9, glycine 30 mM", "value": 76.5, "unit": "kcal/mol"}, {"measurement": "unfolding enthalpy (van 't Hoff)", "setting": "pH 9, glycine 30 mM", "value": 114, "unit": "kcal/mol"}, {"measurement": "Tm", "setting": "pH 10, glycine 30 mM", "value": 39.4, "unit": "°C"}, {"measurement": "unfolding enthalpy (calorimetric)", "setting": "pH 10, glycine 30 mM", "value": 76.9, "unit": "kcal/mol"}, {"measurement": "unfolding enthalpy (van 't Hoff)", "setting": "pH 10, glycine 30 mM", "value": 104, "unit": "kcal/mol"}]}]}
